These results are taken from patent publication US20190010233A1 (JIANGSU HYAMAB PHARMACEUTICAL, published 2019).

The target in assay [1] is T1, full length human PD-L1 on cells (human, UniProt Q9NZQ7 19-290).
T1 construct: Also used as the target of the cell-based functional assays (transfected stimulator cells; PD-L1 of the cells in the mixed lymphocyte reaction); also called CHO-K1-hPD-L1; CHOK1-hPD-L1
Briefly: FACS CHO-K1-hPD-L1, 0.001 nM mAb. The protocol: (§1) Other CHO-K1 were stably transfected with a pIRES plasmid containing the nucleic acid sequence encoding full length cyno PD-L1 to generate CHO-K1 cells stably expressing cyno PD-L1 (herein referred to as CHO-K1-cPD-L1 cells). […] The culture media was aspirated, and the cells were washed twice with HBSS (Hanks Balanced Salt Solution, Invitrogen). The cells were treated with enzyme-free cell dissociation solution (Versene solution, Invitrogen) and collected. The cells were then washed twice with HBSS, cell counts were determined, and cells were resuspended with HBSS at 2×10⁶ cells/mL. Goat serum was added to the cell suspension to a final concentration of 1%, and the cells were blocked for 30 minutes on ice and then washed twice with HBSS. The cells were collected after centrifugation and resuspended in FACS buffer (HBSS+1% BSA, v/v) at 2×10⁶ cells/mL. 100 μL of the cell suspension were then added to each well of 96-well plate. 100 μL of purified anti-PD-L1 antibodies from Example 2 were added to each well of the 96-well plate and incubated for 2 hours on ice. […] The samples were washed three times with FACS buffer, and 100 μL fixation buffer (4% paraformaldehyde v/v) were added to each well and incubated for 10 minutes. The cells were then washed twice with FACS buffer and resuspended in 100 μL FACS buffer. The mean fluorescence intensity (MFI) was determined using FACS Calibur (BD), and the results are shown in FIGS. 7-8 and in Tables 10-11.

Assay [2] has as its target T2, full length cyno PD-L1 on cells (cyno, UniProt G7PSE7 19-290).
T2 construct: also called CHO-K1-cPD-L1
Briefly: FACS CHO-K1-cPD-L1, 0.001 nM mAb as printed (second such column). How it is done:
as §1

Assay [3] deals with T3, cyno PD-L1^ECD-hFc protein (cyno, UniProt G7PSE7 19-239).
T3 construct: also called Cyno Monkey PD-L1^ECD-hFc
T3 sequence (G7PSE7 entry or part of it limits assumed): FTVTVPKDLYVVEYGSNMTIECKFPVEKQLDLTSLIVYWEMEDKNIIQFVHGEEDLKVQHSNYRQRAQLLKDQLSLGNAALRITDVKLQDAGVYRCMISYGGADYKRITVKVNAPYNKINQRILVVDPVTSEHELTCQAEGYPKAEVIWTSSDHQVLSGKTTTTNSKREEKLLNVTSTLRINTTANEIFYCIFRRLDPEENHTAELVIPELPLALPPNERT
As to the kind of experiment: ELISA, 0.370 nM mAb. The protocol: (§2) 100 μL of the diluted recombinant proteins were added to each well of 96-well plate. The plates were sealed with plastic film and incubated at 4° C. overnight. The plates were washed twice with wash buffer (PBS+0.01% (v/v) Tween20), and incubated with blocking buffer (PBS+0.01% (v/v) Tween20+1% (w/w) BSA) at room temperature for 2 hours. The blocking buffer was aspirated away, and 100 μL of purified anti-PD-L1 antibodies were added to each well and incubated for 2 hours at 37° C. The plates were washed three times with wash buffer (PBS+0.01% (v/v) Tween20). HRP-conjugated secondary antibody (Sigma) was added to each well and incubated for 2 hours at 37° C. After the plates were washed three times with wash buffer, 100 μL TMB substrate were added to each well, and the plates were incubated for 30 minutes at room temperature. 100 μL stop solution (0.1N HCl) was added to each well to stop the reaction.
A general note: In an ELISA, binding on a coated surface is turned into a signal by an enzyme label.

For assay [4], the target named is T1, full length human PD-L1 on cells. Briefly: FACS CHO-K1-hPD-L1, 0.14 nM mAb. How it is done:
as §1

In assay [5] the target is T3, cyno PD-L1^ECD-hFc protein. Briefly: ELISA, 1.111 nM mAb. How it is done:
as §2

Assay [6] concerns the target T4, human PD-L1^ECD-hFc protein (human, UniProt Q9NZQ7 19-239, biotinylated in the PD-1 binding ELISA (Table 3) and in the Octet assay (Table 12)).
T4 construct: The plain and the biotinylated protein are kept as one molecule; also called PD-L1-hFc; Immunogen A; not shown: human IgG Fc fragment (hFc)
As to the kind of experiment: ELISA, 1.111 nM mAb. The protocol: as §2

In assay [7] the target is T2, full length cyno PD-L1 on cells. Briefly: FACS CHO-K1-cPD-L1, 33.33 nM mAb. The protocol:
as §1

Assay [8] has the same target. As to the kind of experiment: FACS CHO-K1-cPD-L1, 0.41 nM mAb. How it is done:
as §1

Assay [9] concerns the target T3, cyno PD-L1^ECD-hFc protein. Briefly: ELISA, 0.123 nM mAb. The protocol: as §2
Assay [10] addresses T4, human PD-L1^ECD-hFc protein. As to the kind of experiment: ELISA, 0.123 nM mAb. The protocol:
as §2

In assay [11] the target is T3, cyno PD-L1^ECD-hFc protein. As to the kind of experiment: ELISA, 0.041 nM mAb. How it is done:
as §2

Assay [12] has as its target T4, human PD-L1^ECD-hFc protein. Briefly: ELISA, 0.041 nM mAb. The protocol: as §2
Assay [13] has as its target T1, full length human PD-L1 on cells. Briefly: FACS CHO-K1-hPD-L1, 1.23 nM mAb.
The target in assay [14] is T4, human PD-L1^ECD-hFc protein. As to the kind of experiment: ELISA receptor-ligand blocking assay: PD-L1^ECD-hFc coated on the plate, antibody titrated, blocked ligand biotinylated PD-1^ECD, HRP-streptavidin, inhibition rate (%). How it is done:
Purified PD-L1^ECD-hFc (Example 2) was diluted with PBS to a final concentration of 1.0 μg/mL, and 100 μL diluted PD-L1^ECD-hFc were added to each well of a 96-well plate that was then sealed with plastic film and incubated at 4° C. overnight. The plate was washed twice with wash buffer (PBS+0.01% (v/v) Tween 20) and incubated with blocking buffer (PBS+[…]) at room temperature for 2 hours. The blocking buffer was aspirated, and 50 μL purified anti-PD-L1 antibodies from Example 2 were added to each well of 96-well plate. […] The plate was washed three times with wash buffer (PBS+0.01% (v/v) Tween 20). 100 μL HRP-conjugated streptavidin (Sigma) were then added to each well and incubated at 37° C. for 2 hours. The plate was then washed three times with wash buffer, and 100 μL TMB substrate were added to each well. After 30 minutes of incubation at room temperature, the reaction was stopped by adding 100 μL stop solution (0.1N HCl).

T4 sequence (Q9NZQ7 19-239): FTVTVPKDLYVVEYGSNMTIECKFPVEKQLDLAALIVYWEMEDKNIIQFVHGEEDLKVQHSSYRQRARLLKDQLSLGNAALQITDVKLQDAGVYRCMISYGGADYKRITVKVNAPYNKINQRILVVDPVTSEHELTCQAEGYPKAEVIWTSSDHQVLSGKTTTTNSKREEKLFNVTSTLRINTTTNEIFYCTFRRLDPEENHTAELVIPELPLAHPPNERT
T1 sequence (Q9NZQ7 19-290 limits assumed): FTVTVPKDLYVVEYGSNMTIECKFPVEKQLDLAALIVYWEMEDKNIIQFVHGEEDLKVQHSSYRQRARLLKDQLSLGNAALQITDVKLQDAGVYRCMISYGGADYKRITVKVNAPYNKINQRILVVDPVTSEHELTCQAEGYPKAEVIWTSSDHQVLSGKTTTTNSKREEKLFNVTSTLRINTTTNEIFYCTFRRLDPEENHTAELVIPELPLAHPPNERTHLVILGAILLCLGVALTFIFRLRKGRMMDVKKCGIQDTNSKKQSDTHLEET
T2 sequence (G7PSE7 entry or part of it limits assumed): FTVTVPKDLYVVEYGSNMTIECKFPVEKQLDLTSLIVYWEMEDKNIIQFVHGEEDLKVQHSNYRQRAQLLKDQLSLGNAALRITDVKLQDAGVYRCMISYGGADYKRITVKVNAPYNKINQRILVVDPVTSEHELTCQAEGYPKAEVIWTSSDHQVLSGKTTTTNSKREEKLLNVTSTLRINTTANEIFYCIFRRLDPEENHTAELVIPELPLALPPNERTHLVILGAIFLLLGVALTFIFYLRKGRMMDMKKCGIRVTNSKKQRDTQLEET

B1: chimeric anti-PD-L1 antibody 192D9E7 (antibody, V domains shown)
VH: EVQLVESGGGLVQPGGSLRLSCAASGFTFSSYWMSWVRQAPGKGLEWVADIKQDGSEKYYVDSVKGRFTISRDNAKNSLYLQMNSLRAEDTAVYYCTRDKPHWGGVMDAWGQGTSVTVSS
VL: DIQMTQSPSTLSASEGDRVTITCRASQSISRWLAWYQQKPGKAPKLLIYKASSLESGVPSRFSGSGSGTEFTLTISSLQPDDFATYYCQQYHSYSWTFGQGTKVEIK
notes: Purified from hybridoma of Harbour H2L2 mice: human variable regions, rat constant regions
Take B1: the Mean fluorescence intensity in [1] amounted to 2.66; in assay [2] it was 1.75.

B2: chimeric anti-PD-L1 antibody 105C5D7 (antibody, V domains shown)
VH: EVQLVESGGGLVQPGGSLRLSCAASGFTFSSYWMSWVRQAPGKGLEWVANIKQDGNEKYYVDSVKGRFTISRDNAKNSLYLQMNSLRAEDTAVYYCARNIKWGDAFDIWGQGTMVTVSS
VL: DIQMTQSPSSLSASVGDRVTITCRASQSISSYLNWYQQKPGKAPKLLIYAASSLQSGVPSRFSGSGSGTDFTLTISSLQPEDFAIYSCQQSYSIPLTFGGGTKVEIK
notes: as for B1
Regarding B2, the OD450 nm was 1.19 in [3]; 1.32 in assay [5]; 1.32 in assay [6]; 0.67 in assay [9]; 0.67 in assay [10]; 0.34 in [11]. For the same molecule, the OD450 nm in assay [12] turned out to be 0.34. The Mean fluorescence intensity was determined as 73.2 in [4], 133 in assay [7], 83.8 in assay [8] and 206 in assay [13].

B3: chimeric anti-PD-L1 antibody 127D2F3 (antibody, V domains shown)
VH: EVQLVESGGGLVQPGGSLRLSCVASGFTFSSYWMSWVRQAPGKGLEWVANIKQDGSEKYYVDSVKGRLTISRDNAKNSLYLQMKSLRAEDTAVYYCARDPIYSSYFDYWGQGILVTVSS
VL: DIQMTQSPSSLSASVGDRVTITCRASQSISNYLNWYQQKPGKAPKLLIYAASSLQSGVPSRFSGSGSGTDFTLTISSLQPEDFAAYYCQQSYGIPFTFGPGTKVDIK
notes: as for B1
For the molecule B3, the Mean fluorescence intensity in assay [1] came to 2.1; in assay [2] it was 1.78. In addition, the “IC50 (read off the curve)” value in assay [14] is about 0.3 nM.

B4: chimeric anti-PD-L1 antibody 78A11F6 (antibody, V domains shown)
VH: EVQLVESGGGLVQPGGSLRLSCAASGITFSSYWMSWVRQTPGKGLEWVANIKQDGSEKYYVKSVKGRFTISRDNAKNSLYLQMNSLRAEDTAVYYCVRDRAVPGTGAFDIWGQGTMVIVSS
VL: DIQMTQSPSTLSASVGDRVTITCRASQSISNWLAWYQQKPGKAPKLLIYKASSLESGVPSRFSGSGSGTEFTLTISSLQPDDFATYYCQQYDSSLFTFGQGTKLEIK
notes: as for B1
Take B4: the OD450 nm in assay [3] turned out to be 1.5; in [5] it was 1.92; in [6] it was 1.86; in [9] it was 0.91; in assay [10], 0.84; in [11] it was 0.45. In assay [12], this molecule showed an OD450 nm of 0.37. Moreover, the Mean fluorescence intensity in assay [4] worked out at 51.5; in assay [7] it was 143; in assay [8], 74.5; in assay [13], 174.

B5: chimeric anti-PD-L1 antibody 73G11B3 (antibody, V domains shown)
VH: EVQLVESGGGLVQPGGSLRLSCVVSGFTFSSYWMSWVRQTPGKGLEWVANIKQDGSEKYYVDSVKGRLTISRDNAKNSLYLQMNSLRAEDTAVYYCVRDRAVPGTGALDIWGQGTMVTVSS
VL: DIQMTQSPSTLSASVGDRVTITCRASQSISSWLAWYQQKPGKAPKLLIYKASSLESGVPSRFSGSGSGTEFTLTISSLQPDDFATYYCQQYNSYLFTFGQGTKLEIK
notes: as for B1
For B5, the Mean fluorescence intensity in [1] worked out at 1.88; in assay [2], 1.78. For the same molecule, the “IC50 (read off the curve)” value in [14] is about 0.4 nM.

B6: chimeric anti-PD-L1 antibody 73D3G2 (antibody, V domains shown)
VH: EVQLVESGGGLVQPGGSLRLSCAASGFTFNTYWMNWVRQAPGRGLEWVANIKQDGGEKYYVDSVKGRFTISRDNAKNSLYLQMNSLRAEDTAMYYCARDGRSWYPDAFDIWGQGTVVTVSS
VL: DIQMTQSPSTLSASVGDRVTITCRASQSISTWLAWYQQKLGKAPKLLIYEVSILESGVPSRFSGSGSGTEFTLTISSLQPDDFATYYCQQYHSFSSFGGGTRVEIK
notes: as for B1
Consider B6, for which the OD450 nm was 1.29 in [3]; 1.81 in assay [5]; 1.81 in [6]; 0.72 in assay [9]; 0.72 in assay [10]; 0.36 in [11]. The molecule also showed an OD450 nm in assay [12] of 0.36. The Mean fluorescence intensity in [4] turned out to be 44.3; in assay [7], 137; in assay [8], 83.2; in assay [13], 106. In addition, in [14], the “IC50 (read off the curve)” value is about 0.5 nM.
